Laboratory results reported in patent publication US20200292534A1 (PROMEGA, published 2020).
Starred links: 1 amine or outer side, 2 acyl side, 3 side chain; linkers in the order of their positions; H or OH if unused. No end group written: not given here. NH(CH2)3(OCH2CH2)2O(CH2)3NH = C(CN[*:1])COCCOCCOCCCN[*:2]

What was measured:
NLpoly11S [1] = molecular target: T1, NLpoly11S; experiment: luminescence of purified NLpoly11S in NanoGlo with peptide
T1 construct: Non-luminescent polypeptide (engineered large fragment of NanoLuc); Used as E. coli clarified lysate or as purified protein; also called 11S (12 - A51T); LSP 11S
T1 chain: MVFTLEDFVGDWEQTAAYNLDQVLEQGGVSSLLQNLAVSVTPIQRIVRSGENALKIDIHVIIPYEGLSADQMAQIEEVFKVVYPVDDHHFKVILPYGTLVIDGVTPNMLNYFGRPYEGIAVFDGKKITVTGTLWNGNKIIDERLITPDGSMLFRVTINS

NLpoly11S [2] = molecular target: T1, NLpoly11S; experiment: luminescence complementation titration at several furimazine concentrations, 1-site fit
NLpoly WT [3] = molecular target: T2, NLpoly WT; experiment: luminescence complementation titration (E. coli lysate NLpoly, synthetic NLpep), one site-specific binding fit
T2 construct: also called WT NLpoly
T2 chain: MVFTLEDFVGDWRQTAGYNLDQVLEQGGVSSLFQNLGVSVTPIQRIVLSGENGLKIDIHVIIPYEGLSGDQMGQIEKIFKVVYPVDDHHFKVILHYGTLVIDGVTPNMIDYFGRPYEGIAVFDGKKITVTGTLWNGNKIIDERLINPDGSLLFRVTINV

NLpoly11S [4] = molecular target: T1, NLpoly11S; experiment: luminescence complementation titration on purified NLPoly11S, 1 site specific binding fit
NLpoly11S [5] = molecular target: T1, NLpoly11S; experiment: luminescence complementation titration, one-site specific binding fit
NLpoly WT [6] = molecular target: T2, NLpoly WT; experiment: BRET wavelength scan, NLpoly WT lysate + peptide
NLpoly11S [7] = molecular target: T1, NLpoly11S; experiment: spectral scan of luminescence, purified NLpoly11S + peptide

B1: GWALFKK (peptide)
peptide: GWALFKK
notes: Dark peptide; also called NLpep162 (w/o Met)
NLpoly11S [1]
  binding result: binds

## GVTGWRLCERILA (also called NLpepWT; NLPep1 (WT)) [NLpep1]
NLpoly11S [2]
  binding result: binds
NLpoly WT [3]
  Kd: ~10 µM

B2: NLpep114 (peptide)
peptide: VTGYRLFEEIL
notes: Synthetic; also called NLpep114 (w/o Met)
NLpoly11S [4]
  binding result: binds

## Ac-VTGYRLFEEIL-NH2 [array2.52]
NLpoly11S [5]
  Kd: 104 µM

B3: PBI-4877 (peptide)
peptide: GVTGWRLCERILA-{NH(CH2)3(OCH2CH2)2O(CH2)3NH-6‑tetramethylrhodamine}
notes: also called NLpep1-TMR; NLPep1-fluorophore
NLpoly WT [6]
  binding result: binds
NLpoly11S [7]
  binding result: binds

## GWALFKK (not fully specified (N-terminus); printed as Dabcyl-GWALFKK, Quencher peptide) [Dabcyl-GWALFKK]
NLpoly11S [1]
  binding result: binds
